# Results reported in patent US20210188972A1 (A AND G PHARMACEUTICAL, published 2021).
# Positions count from the first letter of the chain named.
# T1: Human PTGFRN-ECD (extracellular domain; amino-acid 26 to amino-acid Y at 832), His-tag protein (human, UniProt Q9P2B2 26-832)
# T1 construct: range 26-832; Expressed in Hek-293 cells, purified on a nickel column; also called recombinant PTGFRN; not shown: His-tag
# T1 sequence (looked up): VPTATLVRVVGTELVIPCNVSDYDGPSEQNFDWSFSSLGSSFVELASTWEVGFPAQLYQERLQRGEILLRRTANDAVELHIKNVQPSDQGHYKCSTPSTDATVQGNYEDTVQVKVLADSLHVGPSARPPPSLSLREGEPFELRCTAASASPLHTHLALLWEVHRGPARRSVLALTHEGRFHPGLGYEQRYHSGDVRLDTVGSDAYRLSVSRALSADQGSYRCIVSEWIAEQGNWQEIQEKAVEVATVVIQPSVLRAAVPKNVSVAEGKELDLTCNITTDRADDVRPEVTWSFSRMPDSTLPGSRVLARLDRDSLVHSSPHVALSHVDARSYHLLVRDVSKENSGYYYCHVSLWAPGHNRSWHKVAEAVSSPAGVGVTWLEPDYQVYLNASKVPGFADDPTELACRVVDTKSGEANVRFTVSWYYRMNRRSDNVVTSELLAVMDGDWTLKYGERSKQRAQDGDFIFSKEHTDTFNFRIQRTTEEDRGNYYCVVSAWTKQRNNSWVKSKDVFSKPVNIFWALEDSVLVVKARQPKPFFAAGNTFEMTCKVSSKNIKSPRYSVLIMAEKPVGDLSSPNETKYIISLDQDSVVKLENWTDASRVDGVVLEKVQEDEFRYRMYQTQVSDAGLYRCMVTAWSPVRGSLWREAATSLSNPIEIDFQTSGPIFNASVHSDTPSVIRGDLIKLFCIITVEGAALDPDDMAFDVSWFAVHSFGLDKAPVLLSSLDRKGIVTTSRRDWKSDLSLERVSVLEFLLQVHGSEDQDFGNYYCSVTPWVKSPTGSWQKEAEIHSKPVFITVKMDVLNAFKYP
# B1: 6F6 (antibody, V domains shown)
# VH: QVQLQQSGAELVKPGASVKVSCKASGYTFTTYWMHWVKQRPGQGLEWIGRIHPSDSDTNYNQKFKGKATLTLDKSSSTAYMQLSSLTSEDSAVYYCAMSLYYTMDYWGQGTSVTVSS
# VL: DIQMTQSPSSLSASLGGKVTITCKASQDIKKYIAWYQHKPGKGPRLLIHYTSTLQPGIPSRFSGSGSGRDYSFSISNLEPEDIATYYCLQYDNLLYTFGGGTKLEIK
# notes: Mouse hybridoma mAb
# B2: 9A9 (antibody, V domains shown)
# VH: QVQLQQSGPELVKPGASVKLSCKASGYTFTTYDINWVKQRPGQGLEWIGWLYPRDGNTNYNEKFKGKASLTVDTSSSTAYMELHSLTSEDSAVYFCARDYYGSTYGYFDYWGQGTTLTVSS
# VL: DIQMTQSPASLSASVGGTVTITCRASEKIYSYLAWYQQKQGKSPQLLVYDANTLAQGVPSRFSGSGSGTQFSLKINSLQPEDFGSYYCQHHYVTPLTFGAGTKLALK
# notes: Mouse hybridoma mAb
# B3: 2B12 (antibody, V domains shown)
# VH: QVQLQQPGAELVKPGASVKMSCKASGYTFTSYWITWVKQGPGQGLEWIGDIYPGSGNTNYNEKFKSKATLTVDTSSSTAYMQLSSLTSEDSAVYYCARFFILTSYYFDYWGQGTTLTVSS
# VL: GIVMTQSQKFMSTTVGDRVSITCKASQNVGTAVAWFQQKPGQSPKLLIYLASNRYTGVPDRFTGSGSGTDFTLTISNMQSEDLADYFCQQYSNYPLTFGAGTKLELK
# notes: Mouse hybridoma mAb
# B4: 33B7 (antibody, V domains shown)
# VH: DVQLQESGPGLVKPSQSLSLTCSVTGCSITSGYYWNWIRQFPGNKLEWMGYISHDGNNNYSPSLKNRISITRDTSKNQFFLKLNSVTTEDTATYYCARGFYYYGYFGYWGQGTTLTVSS
# VL: DIVMSQSPSSLAVSVGEKVTMSCKSSQSLLYSTNQKNYLAWYQQKPGQSPKPLIYWASTRESGVPDRFTGSGSGTDFTLTISSVKAEDLAVYYCQQYYSYRTFGGGTKLEIKR
# notes: Murine hybridoma monoclonal IgG (ATCC PTA-124281); also called AG02; AGO2
# B5: 10D9 (antibody, V domains shown)
# VH: DVQLQESGPGLVKPSQSLSLTCSVTGCSITSGYDWNWIRQFPGNKLEWMGYINYDGNSNYIPSLKNRVSITRDTSKNQFFLKLNSVTTEDTATYYCARSDGYYWYFDVWGTGTTVTVSS
# VL: DIKMTQSPSSMYASLGERVTITCKASQDIKSYLSWYQQKPWKSPKTLIYYATSLADGVPSRFSASGSGQDYSLTISSLESDDTATYYCLQHAERPLTFGAGTKLELK
# notes: Mouse hybridoma mAb
# B6: 1E2 (antibody, V domains shown)
# VH: DVQLQESGPGLVKPSQSLSLTCSVTDYSITSGYYWNWIRQFPGNKLEWMGYISYDGSNNYNPSLKNRLSITRDTSKNQFFLKLNSVTPEDTATYYCARGWDYCFDYWGQGATLTVSS
# VL: DIQMTQTTSSLSASLGDRVTISCSASQGISNYLNWYQQKPDGTVKLLIYYTSGLHSGVPSRFSGSGSGTDYSLTISNLEPEDIATYYCQQYSQLPWTFGGGTKLEIK
# notes: Mouse hybridoma mAb
# B7: 3E10 (antibody, V domains shown)
# VH: EVHLVESGGDLVKPGGSLKLSCAASGFTFSSYGMSWVRQTPDKRLEWVASISSGGSHTYYPDRVKGRFTISRDNAKNTLYLQMSSLKSEDTAMYYCARHPSYYGSSLYCFDYWGQGTTLTVSS
# VL: B6 VL with S24R, G28D, G53R, Y71F, P80Q, I83V, Y87F, Y91G, Q93T
# Columns and labels:
# [1] = target: T1, Human PTGFRN-ECD (extracellular domain; …); test: BLI, Octet Red96, mAb on AMC sensor, PTGFRN-ECD 100 nM as analyte
# Procedure: Antibody scouting/affinity based antibody ranking was performed to determine on/off rates and KD ranking of selected anti-PTGFRN mAbs using AMC sensor on forteBio Octet Red96 (FortéBio, Menlo Park, Calif.). PTGFRN-ECD, 100 nM, was used as the analyte.
# [2] = target: T1, Human PTGFRN-ECD (extracellular domain; …); test: Octet Red96 pairing (binning matrix) on PTGFRN-ECD; capture Ab (1st loading Ab): 1E2
# [3] = target: T1, Human PTGFRN-ECD (extracellular domain; …); test: Octet Red96 pairing (binning matrix) on PTGFRN-ECD; capture Ab (1st loading Ab): 4F4
# [4] = target: T1, Human PTGFRN-ECD (extracellular domain; …); test: Octet Red96 pairing (binning matrix) on PTGFRN-ECD; capture Ab (1st loading Ab): 7B4
# [5] = target: T1, Human PTGFRN-ECD (extracellular domain; …); test: Octet Red96 pairing (binning matrix) on PTGFRN-ECD; capture Ab (1st loading Ab): 9A9
# [6] = target: T1, Human PTGFRN-ECD (extracellular domain; …); test: Octet Red96 pairing (binning matrix) on PTGFRN-ECD; capture Ab (1st loading Ab): 9D8
# [7] = target: T1, Human PTGFRN-ECD (extracellular domain; …); test: Octet Red96 pairing (binning matrix) on PTGFRN-ECD; capture Ab (1st loading Ab): 9G8
# [8] = target: T1, Human PTGFRN-ECD (extracellular domain; …); test: Octet Red96 pairing (binning matrix) on PTGFRN-ECD; capture Ab (1st loading Ab): 10D9
# [9] = target: T1, Human PTGFRN-ECD (extracellular domain; …); test: Octet Red96 pairing (binning matrix) on PTGFRN-ECD; capture Ab (1st loading Ab): 10E6
# [10] = target: T1, Human PTGFRN-ECD (extracellular domain; …); test: Octet Red96 pairing (binning matrix) on PTGFRN-ECD; capture Ab (1st loading Ab): 2B12
# [11] = target: T1, Human PTGFRN-ECD (extracellular domain; …); test: Octet Red96 pairing (binning matrix) on PTGFRN-ECD; capture Ab (1st loading Ab): 33B7
# [12] = target: T1, Human PTGFRN-ECD (extracellular domain; …); test: Octet Red96 pairing (binning matrix) on PTGFRN-ECD; capture Ab (1st loading Ab): 6F6
Binder,Kd [1] [pM],Response [1],koff [1] [s⁻¹],kon [1] [M⁻¹ s⁻¹],Octet pairing response [2],Octet pairing response [3],Octet pairing response [4],Octet pairing response [5],Octet pairing response [6],Octet pairing response [7],Octet pairing response [8],Octet pairing response [9],Octet pairing response [10],Octet pairing response [11],Octet pairing response [12]
B1,< 1,0.335,< 1e-07,69100,0.232,0.131,0.103,0.222,0.165,0.146,0.191,0.255,0.124,0.126,
B2,< 1,0.319,< 1e-07,151000,,,0.162,,,,,,,,
B3,< 1,0.272,< 1e-07,48500,0.27,,0.0818,0.0744,0.0857,0.0926,0.111,0.157,,0.132,0.13
B4,3090,0.245,0.000602,195000,,0.125,,,,,,,,,
B5,< 1,0.342,< 1e-07,85600,0.269,,0.1,0.226,0.186,0.142,,0.329,0.18,0.236,0.215
B6,< 1,0.41,< 1e-07,63800,,,0.157,0.27,0.184,0.215,0.24,0.306,0.23,0.185,
B7,< 1,0.472,< 1e-07,120000,,0.112,0.12,0.224,0.199,0.124,0.219,0.305,0.251,0.252,0.0759
